From article PMC8292422 (Nature Communications, 2021)
Numbering of substitutions follows the chain as printed.

How the values were obtained:
[1] = biological target: T1, DrBphP (Deinococcus radiodurans, UniProt Q9RZA4); experiment: Phos-tag gel, dephosphorylation of phospho-DrRR with and without ATP; type: biochemical; conditions: 1 mM ATP, phospho-DrRR as substrate, 5 mM MgCl2, pH 7.8, 25 °C, dark or red light
T1 construct: gene bphP; full length (755 residues), C-terminal His6 tag, pET21b(+), E. coli BL21(DE3), assembled with biliverdin
T1 sequence (Q9RZA4 1-755): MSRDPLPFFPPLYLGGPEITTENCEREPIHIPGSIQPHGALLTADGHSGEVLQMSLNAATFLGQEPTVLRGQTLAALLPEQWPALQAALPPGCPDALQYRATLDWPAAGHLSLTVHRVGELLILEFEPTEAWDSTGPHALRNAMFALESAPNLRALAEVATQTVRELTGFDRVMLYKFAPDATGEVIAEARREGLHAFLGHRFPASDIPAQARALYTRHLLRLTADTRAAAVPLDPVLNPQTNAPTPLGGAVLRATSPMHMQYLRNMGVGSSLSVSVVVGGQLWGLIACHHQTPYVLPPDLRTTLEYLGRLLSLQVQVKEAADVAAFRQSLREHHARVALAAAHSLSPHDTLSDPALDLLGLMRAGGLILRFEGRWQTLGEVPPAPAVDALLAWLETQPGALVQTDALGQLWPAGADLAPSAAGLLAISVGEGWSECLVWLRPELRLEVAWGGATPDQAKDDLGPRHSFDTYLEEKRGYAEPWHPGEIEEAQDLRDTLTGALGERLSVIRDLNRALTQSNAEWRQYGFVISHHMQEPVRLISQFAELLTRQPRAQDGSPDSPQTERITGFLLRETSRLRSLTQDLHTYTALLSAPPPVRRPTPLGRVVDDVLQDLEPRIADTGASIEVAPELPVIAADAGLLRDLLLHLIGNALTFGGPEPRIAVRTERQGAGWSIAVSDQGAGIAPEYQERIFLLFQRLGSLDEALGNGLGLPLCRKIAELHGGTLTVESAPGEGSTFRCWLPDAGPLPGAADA

[2] = biological target: T2, AtRR1 (Agrobacterium fabrum, UniProt Q7CY46); experiment: chemical phosphorylation, Phos-tag gel; type: biochemical; conditions: 50 mM acetyl phosphate, 5 mM MgCl2, pH 7.8, 37 °C, 30 min
T2 construct: gene Atu1989; REC-domain-only response regulator, His6 tag, pET21b(+) with N-terminal T7 tag, E. coli BL21(DE3)
T2 sequence (Q7CY46 1-151): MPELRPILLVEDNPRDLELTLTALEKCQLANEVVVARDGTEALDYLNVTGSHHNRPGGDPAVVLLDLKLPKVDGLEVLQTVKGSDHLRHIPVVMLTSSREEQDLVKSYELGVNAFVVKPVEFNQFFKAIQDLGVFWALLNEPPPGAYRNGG

[3] = biological target: the molecule itself; experiment: SEC; EGFP-labeled response regulator alone; Superdex-200 Increase 3.2/300; 25 mM Tris/HCl pH 7.8, 5 mM MgCl2, 4 mM 2-mercaptoethanol, 5% ethylene glycol; 24 µl at 5 mg/ml; plotted at 280 nm
[4] = biological target: T3, response regulator from Deinococcus radiodurans (DrRR) (Deinococcus radiodurans strain R1, UniProt Q9RZA5 1-149); experiment: ITC; Ca2+ buffer
T3 chain: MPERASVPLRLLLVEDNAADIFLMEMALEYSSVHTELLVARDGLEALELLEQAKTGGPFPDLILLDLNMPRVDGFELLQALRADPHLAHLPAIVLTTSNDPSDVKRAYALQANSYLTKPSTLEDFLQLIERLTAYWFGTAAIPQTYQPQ

[5] = biological target: T3, response regulator from Deinococcus …; experiment: ITC; Tris pH 8.0
[6] = biological target: T3, response regulator from Deinococcus …; experiment: ITC; 1 mM AMP-PNP
[7] = biological target: T3, response regulator from Deinococcus …; experiment: SPR; dark (D), kinetic
[8] = biological target: T3, response regulator from Deinococcus …; experiment: SPR; dark (D), kinetic
[9] = biological target: T3, response regulator from Deinococcus …; experiment: SPR; red light (R), kinetic
[10] = biological target: T3, response regulator from Deinococcus …; experiment: SPR; red light (R), kinetic
[11] = biological target: T3, response regulator from Deinococcus …; experiment: ITC; dark (D), 30 mM Tris/HCl, pH 8.0
[12] = biological target: DrBphP E536A variant (Deinococcus radiodurans strain R1, UniProt Q9RZA4 1-755, E536A, biliverdin chromophore (molar excess of biliverdin hydrochloride added to the lysate)); experiment: ITC
[13] = biological target: T4, bacteriophytochrome from Deinococcus radiodurans (DrBphP), wild type (Deinococcus radiodurans strain R1, UniProt Q9RZA4 1-755, biliverdin chromophore (molar excess of biliverdin hydrochloride added to the lysate; thioether linkage to the conserved cysteine within the PAS domain)); experiment: SPR; same sensorgrams as the dark steady-state SPR; 1:1 Langmuir kinetic fit of ka/kd; DrBphP 8-67 µM; conditions: both partners purified
T4 construct: Pr (dark or far-red) and Pfr (red light) states are told apart by the assay; source: E. coli BL21 (DE3), purified (NiNTA, SEC)
T4 sequence: T1 sequence (Q9RZA4 1-755)

[14] = biological target: T4, bacteriophytochrome from Deinococcus …; experiment: SPR; Biacore X; response regulator coupled (EDC/NHS) on a carboxymethyldextran chip, phytochrome flowed after red light (655 nm, Pfr); 20 mM HEPES, 300 mM NaCl, 5 mM MgCl2, 0.10% Tween20, pH 7.5; room temperature; steady-state fit; conditions: both partners purified
[15] = biological target: T4, bacteriophytochrome from Deinococcus …; experiment: ITC; MicroCal PEAQ-ITC; BphP (30-50 µM) in the cell in the Pr state (785 nm), RR (750-800 µM) in the syringe; 25 °C, dark; Tris/HCl pH 7.8, 5 mM MgCl2, 4 mM 2-mercaptoethanol, 5% ethylene glycol; single-site fit; also run with AMP-PNP or Ca2+ added; conditions: both partners purified
[16] = biological target: T5, DrBphP E536A variant (Deinococcus radiodurans strain R1, UniProt Q9RZA4 1-755, E536A, biliverdin chromophore (molar excess of biliverdin hydrochloride added to the lysate)); experiment: as above; conditions: both partners purified
T5 construct: source: E. coli BL21 (DE3), purified (NiNTA, SEC)
T5 sequence: T1 sequence (Q9RZA4 1-755) with E536A

[17] = biological target: T4, bacteriophytochrome from Deinococcus …; experiment: SPR; Biacore X; response regulator coupled (EDC/NHS) on a carboxymethyldextran chip, phytochrome flowed; dark (Pr, far-red 785 nm pre-illumination); 20 mM HEPES, 300 mM NaCl, 5 mM MgCl2, 0.10% Tween20, pH 7.5; room temperature; steady-state (Req) fit, 1:1 model; conditions: both partners purified

Molecule: Nc1ncnc2c1ncn2[C@@H]1O[C@H](COP(=O)(O)OP(=O)(O)OP(=O)(O)O)[C@@H](O)[C@H]1O [ATP]
- Phos-tag gel, dephosphorylation of phospho-DrRR with and without ATP [1]: the phosphatase activity in DrBphP depended on ATP addition

Molecule: CC(=O)OP(=O)(O)O [acetyl phosphate]
- chemical phosphorylation, Phos-tag gel [2]: whereas AtRR1 responded to the treatment weakly

B1: EGFP-labeled AtRR1 (natural protein)
chain: MPELRPILLVEDNPRDLELTLTALEKCQLANEVVVARDGTEALDYLNVTGSHHNRPGGDPAVVLLDLKLPKVDGLEVLQTVKGSDHLRHIPVVMLTSSREEQDLVKSYELGVNAFVVKPVEFNQFFKAIQDLGVFWALLNE
notes: also called EGFP-AtRR1; source: E. coli BL21 (DE3), purified (NiNTA, SEC)
- stoichiometry N [3]: 2

B2: bacteriophytochrome from Deinococcus radiodurans (DrBphP), wild type (enzyme)
chain: T1 sequence (Q9RZA4 1-755)
modifications: biliverdin chromophore (molar excess of biliverdin hydrochloride added to the lysate; thioether linkage to the conserved cysteine within the PAS domain)
- Kd [4]: 2.8 µM
- Kd [5]: 35 µM
- Kd [6]: ~11 µM
- Kd [7]: 6.2 µM
- koff [8]: 0.0046 s⁻¹
- Kd [9]: 15.5 µM
- koff [10]: 0.0065 s⁻¹
- Kd [11]: 35 µM

B3: response regulator from Deinococcus radiodurans (DrRR) (natural protein)
chain: T3 chain
notes: consists only of a receiver (REC) domain; Forms dimers in the crystal (four monomers, two dimers in the asymmetric unit); also called Q9RZA5_DEIRA; source: E. coli BL21 (DE3), purified (NiNTA, SEC)
- Kd [12]: 13 µM
- Kd [13]: ~10 µM
- Kd [14]: 60 ± 7 µM
- Kd [15]: 8.1 µM
- binding result [16]: binds
- Kd [17]: 43 ± 8 µM
